In patent US20150037348A1 (AbbVie / Abbott, published 2015):
Substitutions are numbered along the chain they refer to.

Tests used:
Assay in all cases: cell-based or functional assay
[1] = biological target: T1, recombinant human IL-12 (rhIL-12) (human, UniProt P29459 23-219; P29460 23-328)
T1 sequence (looked up) 1: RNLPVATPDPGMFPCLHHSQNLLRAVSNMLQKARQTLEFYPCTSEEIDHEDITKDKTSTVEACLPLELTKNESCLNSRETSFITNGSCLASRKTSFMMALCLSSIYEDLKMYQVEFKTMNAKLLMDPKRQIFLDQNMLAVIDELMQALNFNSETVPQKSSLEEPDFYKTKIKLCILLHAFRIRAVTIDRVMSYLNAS
T1 sequence (looked up) 2: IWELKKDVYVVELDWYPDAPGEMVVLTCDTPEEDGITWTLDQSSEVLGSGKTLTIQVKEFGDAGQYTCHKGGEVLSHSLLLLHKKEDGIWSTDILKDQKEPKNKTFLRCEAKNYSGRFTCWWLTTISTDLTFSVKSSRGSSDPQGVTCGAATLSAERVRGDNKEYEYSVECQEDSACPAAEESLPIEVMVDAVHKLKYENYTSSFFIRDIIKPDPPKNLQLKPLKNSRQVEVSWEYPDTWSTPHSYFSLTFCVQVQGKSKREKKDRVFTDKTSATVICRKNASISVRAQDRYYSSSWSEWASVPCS

[2] = biological target: T2, cynomolgus IL-12 (PBMC supernatant) (cynomolgus monkey)
T2 chain 1: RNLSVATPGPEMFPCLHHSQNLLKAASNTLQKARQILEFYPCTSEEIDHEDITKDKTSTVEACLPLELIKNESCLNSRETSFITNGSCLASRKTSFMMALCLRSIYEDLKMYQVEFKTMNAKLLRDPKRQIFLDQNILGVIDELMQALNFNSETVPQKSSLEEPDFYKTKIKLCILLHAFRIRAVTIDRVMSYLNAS
T2 chain 2: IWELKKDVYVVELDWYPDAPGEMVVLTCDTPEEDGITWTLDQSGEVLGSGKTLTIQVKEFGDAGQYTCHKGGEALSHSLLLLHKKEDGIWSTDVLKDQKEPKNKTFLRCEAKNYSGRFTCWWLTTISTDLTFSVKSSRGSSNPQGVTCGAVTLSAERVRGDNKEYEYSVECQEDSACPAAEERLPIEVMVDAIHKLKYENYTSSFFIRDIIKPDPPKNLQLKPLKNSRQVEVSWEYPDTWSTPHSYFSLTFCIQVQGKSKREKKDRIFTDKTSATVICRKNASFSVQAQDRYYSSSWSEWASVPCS

[3] = biological target: T3, baboon IL-12 (PBMC supernatant) (baboon)
T3 chain 1: T2 chain 2 with V230A
T3 chain 2: T2 chain 1 with F82V, N85K, K110Q, M111I, R125M, K172R

IC50 (M), bioassay, Human IL-12 Purified [1]: 5e-12 M
IC50 (M), bioassay, Cyno IL-12 PBMC sup [2]: 1e-11 M
IC50 (M), bioassay, Baboon IL-12 PBMC sup [3]: 1.5e-11 M
B1: J695 (antibody, human IgG1, V domains shown)
VH: QVQLVESGGGVVQPGRSLRLSCAASGFTFSSYGMHWVRQAPGKGLEWVAFIRYDGSNKYYADSVKGRFTISRDNSKNTLYLQMNSLRAEDTAVYYCKTHGSHDNWGQGTMVTVSS
VL: QSVLTQPPSVSGAPGQRVTISCSGSRSNIGSNTVKWYQQLPGTAPKLLIYYNDQRPSGVPDRFSGSKSGTSASLAITGLQAEDEADYYCQSYDRYTHPALLFGTGTKVTVLG
notes: human IgG1 with lambda light chain
